Measured values taken from PMC6719441, “CDK2 regulates the NRF1/Ehmt1 axis during meiotic prophase I”.

Molecular target: T1, NRF1 (GST-NRF1, unphosphorylated) (Homo sapiens, UniProt Q16656 1-503)
T1 sequence: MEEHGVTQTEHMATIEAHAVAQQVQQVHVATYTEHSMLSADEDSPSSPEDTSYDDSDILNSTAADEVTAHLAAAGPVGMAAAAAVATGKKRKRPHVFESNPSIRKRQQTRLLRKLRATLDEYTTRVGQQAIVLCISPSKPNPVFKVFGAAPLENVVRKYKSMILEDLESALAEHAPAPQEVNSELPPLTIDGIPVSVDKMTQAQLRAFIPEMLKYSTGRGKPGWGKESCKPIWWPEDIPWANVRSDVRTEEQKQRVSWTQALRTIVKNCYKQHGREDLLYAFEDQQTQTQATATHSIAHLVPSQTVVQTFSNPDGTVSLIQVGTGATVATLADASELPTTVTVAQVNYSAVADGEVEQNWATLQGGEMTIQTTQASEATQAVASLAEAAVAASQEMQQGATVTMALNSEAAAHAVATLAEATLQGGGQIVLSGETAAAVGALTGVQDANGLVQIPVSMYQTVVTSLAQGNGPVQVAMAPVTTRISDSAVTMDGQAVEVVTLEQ
Test: EMSA; 1-3 ug protein, poly[d(I-C)]; concentration-dependent; 5 mM Hepes pH 8.0, 20 nM DTT (so in the source), 30 mM NaCl, 10 ng DIG probe, 1 ug poly[d(I-C)], 0.5-2 ug GST-NRF1 (Methods; legend 1-3 ug), 5 min RT; 6% native TBE-PAGE, 0.5x TBE pH 8.3, 4 C
Conditions: protein: recombinant; tags: N-terminal GST (pGEX6P1); chain copies: 2; label: DIG (DIG 3'-end labeling kit named); blunt

B1: Ehmt1 promoter probe (PKO 5019/PKO 5020) (dsDNA)
DNA 1: GCCACCTGGCCTCGCCTCCAGACGCAGGCGCCGCACGGGTGGGTC
DNA 2: GACCCACCCGTGCGGCGCCTGCGTCTGGAGGCGAGGCCAGGTGGC
binding result: binds
